Experimental data as given in patent publication US20210355194A1 (TWIST BIOSCIENCE, published 2021).
Where two headings read alike, the source gives them in different places.

How the values were obtained:
[1] = target: SARS-COV2-S1 RBD (mouse IgG2Fc tag) (SARS-CoV-2, UniProt P0DTC2 319-537)
[2] = target: T1, COVID S1 RBD Fc fusion (Antigen 1) (SARS-CoV-2, UniProt P0DTC2 319-541); experiment: phage ELISA
T1 construct: domain: S1 RBD

[3] = target: T2, COVID S1 RBM Fc fusion (Antigen 2) (SARS-CoV-2, UniProt P0DTC2 437-508); experiment: phage ELISA
T2 construct: domain: S1 RBM

[4] = target: T3, Acro SARS-CoV-2 (COVID-19) S1 protein (SARS-CoV-2, UniProt P0DTC2 16-685); experiment: SPR
T3 construct: also called SARS-CoV-2 S1

[5] = target: SARS-CoV-2 spike on live SARS-CoV-2 virus (SARS-CoV-2, UniProt P0DTC2 14-1273); experiment: cell-based or functional assay
SARS-CoV-2 S1 protein = target: T4, SARS-CoV-2 S1 protein (SARS-CoV-2, UniProt P0DTC2 16-685); experiment: phage ELISA screen on S1, mean
T4 construct: also called SARS-CoV-2 Spike Glycoprotein S1; S1 (subunit 1)

[6] = target: SARS-COV2-S1 RBD (mouse IgG2Fc tag) (SARS-CoV-2, UniProt P0DTC2 319-537); experiment: FACS, S1 RBD-mFc on Vero E6 (ACE2)
[7] = target: T5, Acro SARS-CoV-2 (COVID-19) S1 protein (SARS-CoV-2, UniProt P0DTC2 16-685); experiment: SPR; remark: listed apart in the source
T5 construct: also called SARS-CoV-2 S1

B1: variant 6-1 (Fc fusion)
VHH: EVQLVESGGGLVQPGGSLRLSCAASGRTFGNYNMGWFRQAPGKEREFVATINSLGGTSYADSVKGRFTISADNSKNTAYLQMNSLKPEDTAVYYCARVDYYMDVWGQGTLVTVSS
IC50 [1]: 15.8 nM

B2: variant 6-40 (Fc fusion)
VHH: EVQLVESGGGLVQPGGSLRLSCAASGFTFSDYWMGWFRQAPGKERELVARVWWNGGSAYYADSVKGRFTISADNSKNTAYLQMNSLKPEDTAVYYCAREVLRQQVVLDYWGQGTLVTVSS
IC50 [1]: 1.36 nM

B3: variant 6-65 (Fc fusion)
VHH: EVQLVESGGGLVQPGGSLRLSCAASGLPFSTLHMGWFRQAPGKEREFVASLSIFGATGYADSVKGRFTISADNSKNTAYLQMNSLKPEDTAVYYCWMYYYDSSGYYGNYYYGMDVWGQGTLVTVSS
IC50 [1]: 37.5 nM

B4: variant 2-9 (antibody, V domains shown)
VH: EVQLLESGGGLVQPGGSLRLSCAASGFTFPRYAMSWVRQAPGKGLEWVSTISGSGSTTYYADSVKGRFTISRDNSKNTLYLQMNSLRAEDTAVYYCARLIDAFDIWGQGTLVTVSS
VL: DIQMTQSPSSLSASVGDRVTITCRASQRIGTYLNWYQQKPGKAPKLLIYAASNLEGGVPSRFSGSGSGTDFTLTISSLQPEDFATYYCQQNYSTTWTFGQGTKVEIK
specificity ELISA, fold over background [2]: 24.3 fold over background | specificity ELISA, percent binding relative to Acro S1 [2]: 101% | specificity ELISA, fold over background [3]: 0.8 fold over background | specificity ELISA, percent binding relative to Acro S1 [3]: 3.5%

B5: variant 6-39 (Fc fusion)
VHH: EVQLVESGGGLVQPGGSLRLSCAASGFTFSPSWMGWFRQAPGKEREFVAAISWSGGSTAYADSVKGRFTISADNSKNTAYLQMNSLKPEDTAVYYCHGLGEGDPYGDYEGYFDLWGQGTLVTVSS
IC50 [1]: 1.53 nM | Kd [4]: 11.3 nM

B6: variant 6-44 (Fc fusion)
VHH: EVQLVESGGGLVQPGGSLRLSCAASGGTFGVYHMGWFRQAPGKEREFIGRITWTDGSTYYADSVKGRFTISADNSKNTAYLQMNSLKPEDTAVYYCFGLLEVYDMTFDYWGQGTLVTVSS
IC50 [1]: 0.97 nM | Kd [4]: 8.2 nM | EC80 [5]: 3.16 µg/mL

B7: variant 6-41 (Fc fusion)
VHH: EVQLVESGGGLVQPGGSLRLSCAASGFTFSTSWMGWFRQAPGKEREFVASINEYGGRNYADSVKGRFTISADNSKNTAYLQMNSLKPEDTAVYYCAGLHYYYDSSGYNPTEYYGMDVWGQGTLVTVSS
IC50 [1]: 6.6 nM

B8: variant 6-18 (Fc fusion)
VHH: EVQLVESGGGLVQPGGSLRLSCAASGLTFRNYAMGWFRQAPGKEREFIAGMMWSGGTTTYADSVKGRFTISADNSKNTAYLQMNSLKPEDTAVYYCAREGYYYDSSGYLNYFDYWGQGTLVTVSS
IC50 [1]: 12.3 nM | Kd [4]: 30.1 nM

B9: variant 3-10 (antibody, V domains shown)
VH: EVQLLESGGGLVQPGGSLRLSCAASGFTFRSHAMSWVRQAPGKGLEWVSSISGGGASTYYADSVKGRFTISRDNSKNTLYLQMNSLRAEDTAVYYCARVKYLTTSSGWPRPYFDNWGQGTLVTVSS
VL: DIQMTQSPSSLSASVGDRVTITCRASQSIRKYLNWYQQKPGKAPKLLIYASSTLQRGVPSRFSGSGSGTDFTLTISSLQPEDFATYYCQQSLSTPFTFGGGTKVEIK
specificity ELISA, fold over background [2]: 1.2 fold over background | specificity ELISA, percent binding relative to Acro S1 [2]: 97.2% | specificity ELISA, fold over background [3]: 1.1 fold over background | specificity ELISA, percent binding relative to Acro S1 [3]: 93.3%

B10: variant 6-38 (Fc fusion)
VHH: EVQLVESGGGLVQPGGSLRLSCAASGNTFSGGFMGWFRQAPGKEREFVAVISSLSSKSYADSVKGRFTISADNSKNTAYLQMNSLKPEDTAVYYCAKVDSGYDYWGQGTLVTVSS
IC50 [1]: 1.94 nM | Kd [4]: 26.6 nM

B11: variant 2-1 (antibody, V domains shown)
VH: EVQLLESGGGLVQPGGSLRLSCAASGFTFSNYATDWVRQAPGKGLEWVSIISGSGGATYYADSVKGRFTISRDNSKNTLYLQMNSLRAEDTAVYYCAKGGYCSSDTCWWEYWLDPWGQGTLVTVSS
VL: DIQMTQSPSSLSASVGDRVTITCRASQSIHRFLNWYQQKPGKAPKLLIYAASNLHSGVPSRFSGSGSGTDFTLTISSLQPEDFATYYCQQSYGLPPTFGQGTKVEIK
specificity ELISA, fold over background [2]: 36.8 fold over background | specificity ELISA, percent binding relative to Acro S1 [2]: 93.7% | specificity ELISA, fold over background [3]: 1.5 fold over background | specificity ELISA, percent binding relative to Acro S1 [3]: 3.9%

B12: 2-4 (antibody, V domains shown)
VH: EVQLLESGGGLVQPGGSLRLSCAASGFTFSDFAMAWVRQAPGKGLEWVSAISGSGDITYYADSVKGRFTISRDNSKNTLYLQMNSLRAEDTAVYYCAREADGLHSPWHFDLWGQGTLVTVSS
VL: DIQMTQSPSSLSASVGDRVTITCRASQSIDTYLNWYQQKPGKAPKLLIYAASALASGVPSRFSGSGSGTDFTLTISSLQPEDFATYYCQQSYSAPPYTFGQGTKVEIK
notes: also called variant 2-4
ELISA(Avg) (SARS-CoV-2 S1 protein): 15.5 fold over background

B13: variant 6-47 (Fc fusion)
VHH: EVQLVESGGGLVQPGGSLRLSCAASGRTFSMHAMGWFRQAPGKERELVASITYGGNINYADSVKGRFTISADNSKNTAYLQMNSLKPEDTAVYYCAKEGYYDSTGYRTYFQQWGQGTLVTVSS
IC50 [1]: 5.86 nM

B14: variant 6-57 (Fc fusion)
VHH: EVQLVESGGGLVQPGGSLRLSCAASGLTFDDHSMGWFRQAPGKEREFVAAVPLSGNTYYADSVKGRFTISADNSKNTAYLQMNSLKPEDTAVYYCASFSGGPADFDYWGQGTLVTVSS
IC50 [1]: 3.13 nM

B15: variant 6-54 (Fc fusion)
VHH: EVQLVESGGGLVQPGGSLRLSCAASGFEFENHWMGWFRQAPGKEREYVAHITAGGLSNYADSVKGRFTISADNSKNTAYLQMNSLKPEDTAVYYCGRHWGIYDSSGFSSFDYWGQGTLVTVSS
IC50 [1]: 8.9 nM

B16: variant 6-30 (Fc fusion)
VHH: EVQLVESGGGLVQPGGSLRLSCAASGFAFGDSWMGWFRQAPGKEREFVATINWSGVTAYADSVKGRFTISADNSKNTAYLQMNSLKPEDTAVYYCARADGYFDYWGQGTLVTVSS
IC50 [1]: 2.94 nM | Kd [4]: 11.8 nM

B17: variant 6-7 (Fc fusion)
VHH: EVQLVESGGGLVQPGGSLRLSCAASGFTFSSYWMGWFRQAPGKEREFVATINWSGVTAYADSVKGRFTISADNSKNTAYLQMNSLKPEDTAVYYCARADDYFDYWGQGTLVTVSS
IC50 [1]: 1.53 nM

B18: variant 6-77 (Fc fusion)
VHH: EVQLVESGGGLVQPGGSLRLSCAASGFTFDRSWMGWFRQAPGKEREFVAAVTEGGTTSYADSVKGRFTISADNSKNTAYLQMNSLKPEDTAVYYCARADYDFDYWGQGTLVTVSS
IC50 [1]: 4.04 nM | Kd [4]: 24.6 nM

B19: variant 6-10 (Fc fusion)
VHH: EVQLVESGGGLVQPGGSLRLSCAASGSIASIHAMGWFRQAPGKEREFVAAISRSGGFGSYADSVKGRFTISADNSKNTAYLQMNSLKPEDTAVYYCARDDKYYDSSGYPAYFQHWGQGTLVTVSS
IC50 [1]: 1.44 nM | Kd [4]: 29.7 nM

B20: variant 6-34 (Fc fusion)
VHH: EVQLVESGGGLVQPGGSLRLSCAASGSAFRSNAMGWFRQAPGKEREFVAHISWSSKSTYYADSVKGRFTISADNSKNTAYLQMNSLKPEDTAVYYCATYCSSTSCFDYWGQGTLVTVSS
IC50 [1]: 8.24 nM | Kd [4]: 21.3 nM

B21: variant 5-34 (Fc fusion)
VHH: EVQLVESGGGLVQPGGSLRLSCAASGRTFSRYIMGWFRQAPGKEREFVAAISWSGGDNTYYADSVKGRFTISADNSKNTAYLQMNSLKPEDTAVYYCAAYRIVVGGTSPGDWRWGQGTLVTVSS
notes: VHH-Fc
Competition Factor [6]: 5.69

B22: variant 5-37 (Fc fusion)
VHH: EVQLVESGGGLVQPGGSLRLSCAASGSTFSINAMGWFRQAPGKEREFVGGISRSGATTNYADSVKGRFTISADNSKNTAYLQMNSLKPEDTAVYYCAADGVPEYSDYASGPVWGQGTLVTVSS
notes: VHH-Fc
Kd [7]: 30.2 nM | Competition Factor [6]: 8.19

B23: variant 5-20 (Fc fusion)
VHH: EVQLVESGGGLVQPGGSLRLSCAASGRTIVPYTMGWFRQAPGKERELVAAISPSAFTEYADSVKGRFTISADNSKNTAYLQMNSLKPEDTAVYYCAARRWGYDWGQGTLVTVSS
notes: VHH-Fc
Kd [7]: 14.3 nM | Competition Factor [6]: 12.4

B24: variant 5-1 (Fc fusion)
VHH: EVQLVESGGGLVQPGGSLRLSCAASGGTFSSIGMGWFRQAPGKEREFVAAISWDGGATAYADSVKGRFTISADNSKNTAYLQMNSLKPEDTAVYYCAKEDVGKPFDWGQGTLVTVSS
notes: VHH-Fc
Kd [7]: 15.1 nM | Competition Factor [6]: 10

B25: variant 6-45 (Fc fusion)
VHH: EVQLVESGGGLVQPGGSLRLSCAASGNMFSINAMGWFRQAPGKEREFVTLISWSSGRTSYADSVKGRFTISADNSKNTAYLQMNSLKPEDTAVYYCASLGYCSGGSCFDYWGQGTLVTVSS
IC50 [1]: 1.16 nM | Kd [4]: 17.5 nM | EC80 [5]: 4.02 µg/mL

B26: variant 6-67 (Fc fusion)
VHH: EVQLVESGGGLVQPGGSLRLSCAASGSFSNYAMGWFRQAPGKEREFVAAISSSGALTSYADSVKGRFTISADNSKNTAYLQMNSLKPEDTAVYYCWIVGPGPLDGMDVWGQGTLVTVSS
IC50 [1]: 3.8 nM
